The source of these data is the Immune Epitope Database (IEDB).

Assay [1] addresses HLA-A*68:02. Nature of the assay: IEDB peptide-MHC binding, cellular MHC/competitive/fluorescence; ≥ and ≤ were set here for values at or beyond the usual limits of such assays.
For assay [2], the target named is HLA-A*02:01. Nature of the assay: IEDB peptide-MHC binding, purified MHC/competitive/radioactivity; ≥ and ≤ were set here for values at or beyond the usual limits of such assays.
Assay [3] deals with HLA-A*02:02. The description is as above.
In assay [4] the target is HLA-A*02:03. The description is as above.
Assay [5] deals with HLA-A*02:06. The description is as above.
Setting [6] is: source organism: Vaccinia virus WR.
The mark [7] stands for this setting: source organism: Hepacivirus hominis.

Broadly, the IC50 is the concentration at which inhibition is half-maximal. Regarding SINNQLMYDI, the 50% inhibitory concentration (IC50) in assay [1] (setting [6]) was 6460 nM; in assay [2] (setting [6]) it was 2380 nM; in assay [3] (setting [6]) it was 492 nM; in assay [4] (setting [6]), 482 nM; in assay [5] (setting [6]), 4840 nM.

In the case of SLDQTHIKTI, the IC50 in assay [1] (setting [6]) was 7580 nM; in assay [2] (setting [6]), 759 nM; in assay [3] (setting [6]), 1430 nM; in assay [4] (setting [6]) it was 15 nM; in assay [5] (setting [6]), 2460 nM.

For SLGKSPLPSL, the IC50 in assay [1] (setting [6]) was found to be 12800 nM; in assay [2] (setting [6]), 134 nM; in assay [3] (setting [6]) it was 4.1 nM; in assay [4] (setting [6]), 47 nM; in assay [5] (setting [6]), 1430 nM.

With SLIYYQNEVT, the 50% inhibitory concentration (IC50) was 7200 nM in assay [1] (setting [6]); 529 nM in assay [2] (setting [6]); 77 nM in assay [3] (setting [6]); 606 nM in assay [4] (setting [6]); 4310 nM in assay [5] (setting [6]).

As for SLTQVKELGI, the IC50 was found to be 7150 nM in assay [1] (setting [6]); 210 nM in assay [2] (setting [6]); 9.8 nM in assay [3] (setting [6]); 75 nM in assay [4] (setting [6]); 157 nM in assay [5] (setting [6]).

As to SLVKESMASL, the half-maximal inhibitory concentration (IC50) worked out at 7960 nM in assay [1] (setting [6]); 2360 nM in assay [2] (setting [6]); 994 nM in assay [3] (setting [6]); 7.8 nM in assay [4] (setting [6]); 1430 nM in assay [5] (setting [6]).

For SLVSKHWELT, the IC50 in assay [1] (setting [6]) came to 16300 nM; in assay [2] (setting [6]), 96 nM; in assay [3] (setting [6]), 409 nM; in assay [4] (setting [6]) it was 35 nM; in assay [5] (setting [6]), 2680 nM.

SLVTSFLLM: the IC50 came to 50100 nM in assay [1] (source organism: SARS-CoV1); 271 nM in assay [2] (source organism: SARS-CoV1); 66 nM in assay [3] (source organism: SARS-CoV1); 49 nM in assay [4] (source organism: SARS-CoV1); 257 nM in assay [5] (source organism: SARS-CoV1).

As for SLVYGIRCV, the half-inhibitory concentration (IC50) is 51400 nM in assay [1] (setting [6]); 301 nM in assay [2] (setting [6]); 2940 nM in assay [3] (setting [6]); 3.8 nM in assay [4] (setting [6]); 168 nM in assay [5] (setting [6]).

Turning to SMMVILPDKI, the IC50 in assay [1] (setting [6]) came out at 7290 nM; in assay [2] (setting [6]) it was 6.1 nM; in assay [3] (setting [6]), 28 nM; in assay [4] (setting [6]), 19 nM; in assay [5] (setting [6]), 5.7 nM.

On to SMSQELAEL, for which the IC50 in assay [1] (setting [6]) was found to be 42900 nM; in assay [2] (setting [6]) it was 84 nM; in assay [3] (setting [6]), 4 nM; in assay [4] (setting [6]) it was 7.7 nM; in assay [5] (setting [6]) it was 186 nM.

In the case of SMYVIPDEL, the IC50 was 7090 nM in assay [1] (setting [6]); 91 nM in assay [2] (setting [6]); 5 nM in assay [3] (setting [6]); 13 nM in assay [4] (setting [6]); 2820 nM in assay [5] (setting [6]).

With SQMETDFLEL, the IC50 in assay [1] (source organism: SARS-CoV1) turned out to be 20100 nM; in assay [2] (source organism: SARS-CoV1), 92 nM; in assay [3] (source organism: SARS-CoV1) it was 227 nM; in assay [4] (source organism: SARS-CoV1), 597 nM; in assay [5] (source organism: SARS-CoV1), 21 nM.

Consider TILATLNTL, for which the IC50 came out at 18500 nM in assay [1] (setting [6]); 172 nM in assay [2] (setting [6]); 238 nM in assay [3] (setting [6]); 34 nM in assay [4] (setting [6]); 26 nM in assay [5] (setting [6]).

Consider TLFGRGVIDT, for which the half-inhibitory concentration (IC50) in assay [1] (setting [6]) is 5730 nM; in assay [2] (setting [6]), 130 nM; in assay [3] (setting [6]), 199 nM; in assay [4] (setting [6]), 96 nM; in assay [5] (setting [6]), 3310 nM.

Take TLLGCWSFVL: the IC50 in assay [1] (setting [7]) stood at 26600 nM; in assay [2] (setting [7]) it was 17 nM; in assay [3] (setting [7]) it was 80 nM; in assay [4] (setting [7]), 864 nM; in assay [5] (setting [7]), 250 nM.

With TLLLWISVKV, the IC50 came to 15700 nM in assay [1] (source organism: SARS-CoV1); 253 nM in assay [2] (source organism: SARS-CoV1); 549 nM in assay [3] (source organism: SARS-CoV1); 1060 nM in assay [4] (source organism: SARS-CoV1); 875 nM in assay [5] (source organism: SARS-CoV1).

In the case of TLVPVLEKKV, the IC50 in assay [1] (setting [6]) came out at 32000 nM; in assay [2] (setting [6]), 959 nM; in assay [3] (setting [6]), 112 nM; in assay [4] (setting [6]), 100 nM; in assay [5] (setting [6]), 498 nM.

Turning to VIPDELIDV, the half-inhibitory concentration (IC50) came to 52200 nM in assay [1] (setting [6]); 229 nM in assay [2] (setting [6]); 609 nM in assay [3] (setting [6]); 44 nM in assay [4] (setting [6]); 556 nM in assay [5] (setting [6]).

As for VLAGYGAGI, the IC50 in assay [1] (setting [7]) was determined as 14700 nM; in assay [2] (setting [7]), 408 nM; in assay [3] (setting [7]), 11 nM; in assay [4] (setting [7]) it was 18 nM; in assay [5] (setting [7]) it was 2500 nM.

For the sequence VLALYSPPLI, the IC50 in assay [1] (setting [6]) amounted to 14400 nM; in assay [2] (setting [6]), 55 nM; in assay [3] (setting [6]), 16 nM; in assay [4] (setting [6]), 101 nM; in assay [5] (setting [6]) it was 868 nM.

On to VLEKKVCAIT, for which the IC50 is at least 70000 nM in assay [1] (setting [6]); 3510 nM in assay [2] (setting [6]); 590 nM in assay [3] (setting [6]); 1240 nM in assay [4] (setting [6]); 1680 nM in assay [5] (setting [6]).

Take VLLPFYETL: the half-maximal inhibitory concentration (IC50) in assay [1] (setting [6]) was 24300 nM; in assay [2] (setting [6]), 7.2 nM; in assay [3] (setting [6]) it was 4060 nM; in assay [4] (setting [6]), 267 nM; in assay [5] (setting [6]), 218 nM.

For VLQAGITRV, the IC50 in assay [1] (setting [7]) came out at 35600 nM; in assay [2] (setting [7]), 56 nM; in assay [3] (setting [7]) it was 98 nM; in assay [4] (setting [7]), 12 nM; in assay [5] (setting [7]), 393 nM.
